B1: Pestivirus giraffe-1 (nucleic acid, listed as Pestivirus sp.)
DNA: GTATACGAGTTTAGCTCAATCCTCGTATACAATATTGGGCGTCACCAAATATAGATTTGGCATAGGCAACACCCCGATGCGAAGGCCGAAAAGGGCTAACCATGCCCTTAGTAGGACTAGCAAAAAATCGGGGACTAGCCCAGGTGGTGAGCTTCCTGGATGACCGAAGCCCTGAGTACAGGGCAGTCGTCAACAGTTCAACACGCAGAATAGGTTTGCGTCTTGATATGCTGTGTGGACGAGGGCATGCCCACGGTACATCTTAACCTATCCGGGGGTCGGATAGGCGAAAGTCCAGTATTGGACTGGGAGTACAGCCTGATAGGGTGTTGCAGAGACCCATCTGATAGGCTAGTATAAAAAACTCTGCTGTACATGGCAC
B2: Pegivirus K (nucleic acid)
DNA: AGAATGGTGTGATCCGTCGCCGCTCCAGCGGAAAGCGGGCGGGATCTAGTGGTTAGGGTTGTTCGCGTAAATCCCACACTAGTGGTACGCTCGTATAACGTGGGAGCAGCCGGTGGGGTCGACCCCCCACCTGGCGGCTGCTGAGCACCGGACGAAGCGCGGGGGGTGAACGCTAACCCGCGGCCCGGGCTGCCAACGTTAGGCACGTCTTGGCTGGAAGACGTTAAACACAGGGCCCCCCCTCAACCCTGATCCGAGGCCAGAGACCAAGGTACGCCGCCCTTTTAAAGGCGTTACTCGTCCAATAGGATCTCTCCGGCGGGTTGTCAAACCTTGCTGGCCCTGGTGATGGTTACGGGAGGGGGTGGGGCGGGGAGTAGAAGCCCCGCCCGGCATGGGGGTACCAAGCTCGGCACGCCCAGCACGCGTGGCGTAGGGGAAAAATCCTTCGGGTGACCCCTGGTACCATAAAGTAATTAACATGAGCATGCCGCTAGGGTGTGCTTTTTCTTCCTTCCTTGGGAAGGCGGTGGCACC
modifications: Pegivirus K
B3: Pronghorn antelope pestivirus (nucleic acid, listed as Pestivirus sp.)
DNA: GTATACGCAGTTAGTTCATCCTGTGTATACAGATTGGAGACTCTAAAAACAACGATTCGGAATAGGGGCCCGCGGCGAAGACCGAAGACAGGCTAACCATGCCGTTAGTAGGGCTAGCACCAAAACGCGGGAACTAGACACTTAGGAGAGTGGTCTGGCTACTCTAAGAGGTGAGTACACCTTAACCGTCAAGGGTTCTACTCCTCAGTTGAGGACTAGAGATGCCCTGTGGACGGGGGCATGCCCAAGAGTTAGCTTAGCCGGGGCGGGGGTTGTTCCGGTGAAAGTAGCAATATTGACCACACTGCCTGATAGGGCGGAGCAGGCCCCCTAGGTAGTCTAGTATAAAATGTCTGCTGTACATGGCAC
B4: Human pegivirus isolate JD2B8C (nucleic acid, listed as Pegivirus sp.)
DNA: TGGTCACCTTGGTAGCCACTATAGGTGGGTCTTAAGAGAAGGTTAAGATTCCTCTTGTGCCTGCGGCGAGACCGCGCACGGTCCACAGGTGTTGGCCCTACCGGTGTGAATAAGGGCCCGACGTCAGGCTCGTCGTTAAACCGAGCCCATTTCCCGCCTGGGCAAACGACGCCCACGTACGGTCCACGTCGCCCTTTTAATGTCTCTCTTGACCAATAGGTTCATCCGGCGAGTTGACAAGGACCAGTGGGGGCCGGGGGTCACAGGGATGGACCCTGGGCCCTGCCCTTCCCGGCGGGGTGGGGAAAGCATGGGGCCACCCAGCTCCGCGGCGGCCTGCAGCCGGGGTAGCCCAAGAACCTTCGGGTGAGGGCGGGTGGCATTTTTCTTCCTATACCGATC
B5: Porcine pestivirus 1 (nucleic acid, listed as Pestivirus sp.)
DNA: GCAGATATCGGTGGTGGACCTGGGGGTTGGGCTCACCGTGCCCCTTCATGGGGTAGACCTCACTGCTTGATAGAGTGCCGGCGGATGCCTCAGGTAAGAGTATAAAATCCGTTGTTCACTAAC
modifications: chemistry not fully specified; the letters are possibly those of the target site
B6: Kobuvirus SZAL6: "Kobuvirus SZAL6 IRES", one of the selected IRES sequences, SEQ ID NOs: 348-389 (nucleic acid, listed as Kobuvirus sp.)
DNA: TTTCACACCCTCTTTTCCGGTGGTCCGGACCCAGACCACCGTTACTCCATTCAGCTACTTCGGTACCTGTTCGGAGGAATTAAACGGGCACCCTACCCAAGGGTTACATGGGACCATATTCCTCCTCCCCTGTAACTTTAAGTTTTGTGCCCGTATTCTTGACTCCAGGCGGATGTTGTGTCGCCCGTCCTGTGAACAAACAGCTAGACACTTTCCTCCCCTCCCTCTGGGCTGCTCCGGCAGTCCACTCCCTCCCCCCAGCGTAACATGCCCCGCTGGAGTGATGCACCTGGAAGTCGTGGACGTGGGTTAGTAACTTCGGTGAAAACCCACTATAATGACAACTGGTTGACCCCCACACTCAAAGGACTCGAGTCTTTCTCCCTTAAGGCTAGCCCGGCCACATGAATTTGCAGCTGGCAACTAGTGAGTCCACCATGTCCCGCAACCTCGGCTGCGGAGTGCTGTTCCCCAAGCGTATGCCTTCCTTCTGTAAGAGTGCGCCTGGCAAGCACATCTGAGAAGTCGTTCCGCTGCGTCGTGCCAACCTGGCGACAGGTGACCCAGTGTGCGTAGACTTCTTCCGGATTCGTCCGGCTCTTCTCTAGGAAACATGCGTGTAAGGTTCATGTGCCAAAGCCCTGCGCGCGGTGTTCTTCTACTGCCCTAGGAATGTGCCGCAGGTACCCCTACTTCGGTAGGGATCTGAGCGGTAGCTAATTGTCTACGGGTAGTTTCATTTCCATCTTCTCTTCAGGTCGACATC
B7: Sakobuvirus A FFUP1 (1x mut) (nucleic acid)
DNA: TCACGCGCTTTTCCGGTGGTCACCCACCGTTAGGGAGCGCCAGCGTTCGCGCTTCCGCTACCAGGTGACACACTCCTTTCCCCTCCCCCATTCCCGTTCCCATCCTCTGGACTGGTTTCTCCTCACGATTGACCAGCAGCTGGGAGCTGTTACCAGACGTTGGACAGTAAGTCCCGGATGCACTATAGGGCTGGTGGCTAGTGCTTGGTAAGCACTCAACGCCATACCTAATGTGTACCTCGGCTTGCCCTCCTGGTCGTGGTGACCGGCTGTTTCTCTTCCCTTGGCTCCAGACGGGCTGGTGTCCTACCACCACCGTTGCATGCAGACCTCCCCCTGCGCACTCGAACGCCCTGTCCCAGCAGGGTTAGTATGTGCTGTGCAGATCTGCATGTGACACCCCATCCACTGGTAGAGCAGGAAGTTGCCCTAGCTAACGCGGCAAGTATTACTTTCCGCTACACGTCCTTGAGATTCCTCGGACCTCTGGAACTAGGGTGACTGTGGGCTTGGGAAAACCCACCTTGGTCCTGTACTGCCTGATAGGGTCGCGGCTGGCCGACCAGTGGATGTAGCCAGTTGTTTTGGGAT
B8: Human pegivirus isolate JD2B1I (nucleic acid, listed as Pegivirus sp.)
DNA: TCAGGGTTGGTAGGTCGTAAATCCCGGTCACCTTGGTAGCCACTATAGGTGGGTCTTAAGAGAAGGTTAAGATTCCTCTTGTGCCTGCGGCGAGACCGCGCACGGTCCACAGGTGTTGGCCCTACCGGTGGGAATAAGGGCCCGACGTCAGGCTCGTCGTTAAACCGAGCCCGTCACCCACCTGGGCAAACGACGCCCACGTACGGTCCACGTCGCCCTTCA
B9: Pegivirus I (nucleic acid)
DNA: AGAATGGTCTAAGTGGTTGCCACCGTGGTCCGAAGGGGAGGAGGACCTACGCTGCCAGGGTTGGCAGGTCGTAAATCCCGGGTGTAGGAGATCCCTCCTTGTTAGGACTGCTGGTAGCTGGGGGGTCGGTGACCCCCTGGGCAACCGCCAAACCCGGACGACCGGGTGGCGGCTCCATGTTGGCACGGTCCACAGGTGTGAACCCTACCGGTGTGAATAAGGGTTGGTGGTTGCGGTCCACCTTAAACGTAGTATGCATTGGGCTTGGTAAAACACCGCTCGTAGTACGGAACGCCGCCTTTAAAGACACAGTAGGCGTAGCCGGCGGGTTGACAATCCATACGGGGGGTGGGGTGTGGTCATGGATCTGTCCACACCACCTTCATGCGGCCCTCTAAGCAAGCCATACCGGGGGGAGGCGCGCGGCACCGCACTGCCGGGCAAGGGGAAGAACCTTCGGGTGACCCCCCCCCAACCACCGTCCGATCAATGCTAATGTTGCGTTTAGGCGTGACACCGGCACA
modifications: Pegivirus I
B10: Porcine pestivirus isolate Bungowannah (nucleic acid, listed as Pestivirus sp.)
DNA: TACGCGGGGTATAACGACAGTAGTTCAAGTGTCGTTATGCATCATTGGCCATAACAAATTATCTAATTTGGAATAGGGACCTGCGACCTGTACGAAGGCCGAGCGTCGGTAGCCATTCCGACTAGTAGGACTAGTACAAATAGGTCAACTGGTTGAGCAGGTGAGTGTGCTGCAGCGGCTAAGCGGTGAGTACACCGTATTCGTCAACAGGTGCTACTGGAAAGGATCACCCACTAGCGATGCCTGTGTGGACGAGGACATGTCCAAGCCAATGTTATCAGTAGCGGGGGTCGTTACTGAGAAAGCTGCCCAGAATGGGTAGTTGCACATACAGTCTGATAGGATGCCGGCGGATGCCCTGTATTTTGACCAGTATAAATATTATCCGTTGTAAAGCAT
B11: Simian pegivirus (nucleic acid, listed as Pegivirus sp.)
DNA: GGGGAATCTCACCCCCCGTCCGGTTCCGGAAGAATCGGAAACCGACACCCTGACCAATCATTCTTGATCATAGAGTGGATGTTAGTGAAAGCCAGACGAAAGCCGGCGGATGGGTGGTGACAGGGTTGGTAGGTCGTAAATCCCGGCCACCCTGGTACCCGGTATAAGTTGGGCGGAAGCTGACTGAAGCTCCGTGCTCTTTTCTGTGCGTTCTTGGTGCACGGTCCACAGGTGACGCCTATACCGGTGTGAATAATAGGCCGACTCGAGCGGAGTCGTTAAACTGAGAACCTCCATACGGATGGCAACTTGGCTTGCGTACGGGGACGCCGCTAAAGTCACAGTGGGTTAAGTCCGGCGGGTTGACAACCCCAGCAAGGCGAGGGGGTCCTATTGTTGGACTCTGCCAGTTCCCGGTGGAGGTAGGCATGGGGTGGCCCAGCTCCGCGGCGCGCTACAGCCGGGGTAGCCCAAAATCCGAAAGGTGAGGGCGGGCCACATGTCCGAAATTTAGTCAAGC

Test system: HEK293 cells
Type: cell-based, human
Settings: luminescence from secreted Gluc in supernatant 24 hours after transfection of HEK293 cells; circular RNA encoding Gluc with the named IRES (UTR truncated to 675 nt)

With B1 as the molecule, how does the Expression read?
The Expression was 4.72E+05.

Which Expression does the source give for B2 here?
Its Expression is 8.07E+04.

B3 was tested. Which Expression did it give?
The Expression was 1.35E+06.

Which Expression does the source give for B4 here?
Its Expression is 5.36E+05.

B5 was tested. Which Expression did it give?
The Expression was 9.46E+04.

With B6 as the molecule, how does the Expression read?
Its Expression is 98850000.

B7 was tested. Which Expression did it give?
Its Expression is 8.82E+06.

With B8 as the molecule, how does the Expression read?
Its Expression is 6.85E+05.

Which Expression does the source give for B9 here?
Its Expression is 8.02E+04.

Which Expression does the source give for B10 here?
Its Expression is 1.10E+07.

How did the Expression turn out when B11 was run?
The Expression was 8.56E+04.

From patent US20230226096A1 (Orna Therapeutics, Inc., priority 2020, published 2023)
